Source: publication PMC9898148 (Structure (London, England : 1993), 2022)

T1: hNAA35^28-725 (large auxiliary subunit of human NatC, N-terminally truncated) (human, UniProt Q5VZE5 28-725)
T1 sequence (looked up): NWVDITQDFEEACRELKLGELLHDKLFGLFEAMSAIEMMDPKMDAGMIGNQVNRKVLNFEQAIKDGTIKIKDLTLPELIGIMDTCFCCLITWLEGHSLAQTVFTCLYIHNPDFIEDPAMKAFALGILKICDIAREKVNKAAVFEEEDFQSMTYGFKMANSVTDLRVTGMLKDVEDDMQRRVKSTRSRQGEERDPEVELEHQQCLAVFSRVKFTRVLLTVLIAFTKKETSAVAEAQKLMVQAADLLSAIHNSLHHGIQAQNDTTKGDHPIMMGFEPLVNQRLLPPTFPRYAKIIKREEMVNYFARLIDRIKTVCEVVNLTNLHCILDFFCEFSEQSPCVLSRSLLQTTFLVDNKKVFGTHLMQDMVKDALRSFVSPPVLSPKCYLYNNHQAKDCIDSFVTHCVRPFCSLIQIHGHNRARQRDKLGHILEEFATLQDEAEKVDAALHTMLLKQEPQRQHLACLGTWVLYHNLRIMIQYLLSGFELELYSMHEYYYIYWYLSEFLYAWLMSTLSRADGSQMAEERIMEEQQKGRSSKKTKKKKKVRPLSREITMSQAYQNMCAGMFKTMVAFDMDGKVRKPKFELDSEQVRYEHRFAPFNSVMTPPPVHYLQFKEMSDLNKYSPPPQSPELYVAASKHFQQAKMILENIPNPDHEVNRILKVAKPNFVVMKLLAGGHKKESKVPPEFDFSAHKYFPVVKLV

T2: hNAA30^211-362 (catalytic subunit of human NatC, N-terminally truncated) (human, UniProt Q147X3 211-362)
T2 sequence (looked up): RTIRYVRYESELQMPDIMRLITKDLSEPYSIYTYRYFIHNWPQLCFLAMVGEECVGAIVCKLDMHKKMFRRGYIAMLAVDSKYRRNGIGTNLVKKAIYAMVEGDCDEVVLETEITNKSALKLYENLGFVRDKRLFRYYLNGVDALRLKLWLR

B1: hNAA38^1-125 (small auxiliary subunit of human NatC, full length) (natural protein, UniProt Q9BRA0 1-125, looked up)
chain: MAGAGPTMLLREENGCCSRRQSSSSAGDSDGEREDSAAERARQQLEALLNKTMRIRMTDGRTLVGCFLCTDRDCNVILGSAQEFLKPSDSFSAGEPRVLGLAMVPGHHIVSIEVQRESLTGPPYL
B2: CoA-Ac-MLGPE-NH2 bisubstrate inhibitor (peptide)
peptide: {CoA‑Ac}-MLGPE-NH2

Key:
[1] = molecular target: T1, hNAA35^28-725 (large auxiliary subunit …); experiment: cryo-EM structure
[2] = molecular target: T2, hNAA30^211-362 (catalytic subunit of …); experiment: cryo-EM structure

binding result [1]	binding result [2]	Binder
binds		B1
	binds	B2
